Reference: patent EP2718312B1 (TLA Targeted Immunotherapies AB, dated 2018)
Bridges are numbered along the chain shown (N, C = ends). The star is where a group is joined. Biotin = O=C1N[C@H]2[C@H](CS[C@H]2CCCCC(=O)*)N1

T1: hCCR2b (human, UniProt P41597 1-374)
T1 chain: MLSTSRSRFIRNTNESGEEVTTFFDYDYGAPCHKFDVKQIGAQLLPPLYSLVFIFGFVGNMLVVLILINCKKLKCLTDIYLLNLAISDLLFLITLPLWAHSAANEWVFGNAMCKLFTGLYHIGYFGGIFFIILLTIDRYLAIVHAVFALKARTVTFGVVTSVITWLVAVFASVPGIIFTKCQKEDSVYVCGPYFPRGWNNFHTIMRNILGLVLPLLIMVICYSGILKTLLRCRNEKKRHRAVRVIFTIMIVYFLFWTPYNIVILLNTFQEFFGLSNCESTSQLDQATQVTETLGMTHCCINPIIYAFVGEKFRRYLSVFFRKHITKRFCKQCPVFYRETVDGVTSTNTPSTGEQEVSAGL


Key:
hCCR5 = hCCR5 (human, UniProt P51681 1-352); assay: cell-based or functional assay
Chain of hCCR5 (P51681 whole entry): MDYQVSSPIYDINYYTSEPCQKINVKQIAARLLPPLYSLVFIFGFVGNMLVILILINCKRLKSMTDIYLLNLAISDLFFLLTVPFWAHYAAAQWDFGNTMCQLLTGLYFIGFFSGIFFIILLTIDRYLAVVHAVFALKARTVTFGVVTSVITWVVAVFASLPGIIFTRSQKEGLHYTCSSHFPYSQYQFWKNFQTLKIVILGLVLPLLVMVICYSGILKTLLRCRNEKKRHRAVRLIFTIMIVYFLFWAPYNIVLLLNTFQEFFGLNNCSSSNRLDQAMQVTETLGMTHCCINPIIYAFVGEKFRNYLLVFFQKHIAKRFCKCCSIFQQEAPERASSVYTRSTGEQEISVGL

hCCR2b = target: T1, hCCR2b; assay: cell-based or functional assay

Binder | EC50, agonist activity in an Aequorin assay (hCCR5) | EC50, Aequorin assay (partial agonist) (hCCR2b)
biotinRANTES (CCL5) (ligand, disulfide 10-34, 11-50; also: TFA salt) SPYSSDTTPCCFAYIARPLPRAHIKEYFYTSGKCSNPAVVFVTRKNRQVCANPEKKWVREYINSLEK(Biotin)S-OH | 0.5 nM | –
recombinant native MCP-2 (ligand, human, UniProt P80075 24-99, looked up) QPDSVSIPITCCFNVINRKIPIQRLESYTRITNIQCPKEAVIFKTKRGKEVCADPKERWVRDSMKHLDQIFQNLKP | – | 23.5 nM
